Measured values from article PMC7127797 (Virus Research, 2004).

Target: SARS-CoV nucleocapsid (N) protein, full length, in the pM vector (pM-N) (SARS-CoV, UniProt P59595 1-422)
Experiment: two-hybrid

Chain of SARS-CoV nucleocapsid (N) protein, full length, in the pM vector (pM-N) (P59595 whole entry): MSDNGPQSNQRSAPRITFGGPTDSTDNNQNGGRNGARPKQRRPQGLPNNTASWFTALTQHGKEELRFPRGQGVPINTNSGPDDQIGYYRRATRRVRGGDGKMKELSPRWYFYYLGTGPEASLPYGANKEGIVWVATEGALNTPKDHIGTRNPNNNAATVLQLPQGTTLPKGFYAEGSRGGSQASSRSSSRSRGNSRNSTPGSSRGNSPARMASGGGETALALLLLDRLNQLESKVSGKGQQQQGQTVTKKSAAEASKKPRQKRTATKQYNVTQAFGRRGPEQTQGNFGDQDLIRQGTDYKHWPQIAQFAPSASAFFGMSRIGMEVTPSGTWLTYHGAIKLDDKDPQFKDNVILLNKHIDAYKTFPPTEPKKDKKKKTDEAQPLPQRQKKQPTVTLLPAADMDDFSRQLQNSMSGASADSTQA

B1: SARS-CoV membrane (M) protein in the pVP16 vector (pVP16-M) (natural protein)
chain: MADNGTITVEELKQLLEQWNLVIGFLFLAWIMLLQFAYSNRNRFLYIIKLVFLWLLWPVTLACFVLAAVYRINWVTGGIAIAMACIVGLMWLSYFVASFRLFARTRSMWSFNPETNILLNVPLRGTIVTRPLMESELVIGAVIIRGHLRMAGHSLGRCDIKDLPKEITVATSRTLSYYKLGASQRVGTDSGFAAYNRYRIGNYKLNTDHAGSNDNIALLVQ
  fold chemiluminescence (SEAP) over controls: > 5 fold
